The nature of the series: label from the status in PepcDB records.
As for “MSRTEGSHEAEQDLTMIVGTYTSGDSKGLYSFRFNEENGTATALSEAEVENPSYLVPSADGKFIYAVSEFSNEQAAANAFAFNKEEGTFRLLNTQKTGGEDPCYIITNGSNVVTANYSGGSISVFPIDKDGSLLPASEVVKFKGSGADKERQEKPHLHCVRITPDGKYLFADDLGTDQIHKFIVNPNAKADNEDVFLKEGSPASYKVEAGSGPRHLTFAPNGSYAYLINELSGTVIAFEYNDGELKEIQTIAADTVGAKGSGDIHISPDGKFLYASNRLKADGLAIFSIHPENGMLTKVGYQLTGIHPRNFIITPNGKYLLVACRDSNVIQVYERDTDTGLLTDIRKDIKVDKPVCIKFVPLEHHHHHH”, the protein production result was “not failed”.
Consider “MSRTMAEVNRLLKKTAGLINKDTESPFQGEFRVGVDLGTADIQTIVLDADGNPLAGFMDWANVVRDGVVVDFFGASQIVREQVRRASAKLGIQIEQVTTSFPPGTDSRISTNVIEAAGLEVAGVIDEPSSVAQLLQLDHAAVVDIGGGTTGTAIIEEGRVVRSMDDATGGRHITLTLAGHFGLPYEEAEEMKRTSKDLALCRLAAPVIAKMADIVHGHIAGHKVPAIYLTGGSCALPGFLEVFAAEFPGIEIVMPSHPLYLTPLAIATYSDVLQTREQRVGLEHHHHHH”, for which the protein production entry is given as “failed”.
Under “MSRVAGLSSKKSRWLLQSLLDQQRHSLGTGFESANILLSPKYHLKDKDLRKIHKAARDGDAARVQQLLLGKHCVNDKDKKKRTALHIACAYGHPKVVMALVEGKCEVNATDSEECTSLVKAVQCQEEECATILLENNADPNIVDAQGNSALHYAVYYKNTSLAAKLLDHEVNIEATNKDGFTPFLLAVSENKLKIAKFLLMKNASIHAADNQKRTALMHAVSHDSTNLVRFVLEQGVDLFVKDAFGLTAIDYAADFKYNSKDQQSQELENMEKKYTAAQDSLEYTAAQDSLEHTAAQDSLEHTAAQDGLEYTAAQDSLEHTAAQDSLEHTAAQDSLEHTAAQDSLEYTAAQDSLEYTAAQDSLEYTAAQDSLEHTAAQDSLEYTAAQDSLEHTAAQDSLECTAASNSSRSHALITHVHLSAEPDGGVTSVEEPRRLDDRGDDQPQEAVTAPRTREKEQDMCTVVTGKEDEDESSWDSETNPPSPWGAPEALCAAALDHGDIGSPLTRENGHPRARQSPSVDSEEQDGGSGLNIKEEKTRDHEEWSGDFLMDRTSKESEPAAGDLLQVKDSWSLNDTDPNKGRSGGDPIEESRNATDLNHCKAVYIPPSESANSEIWKGMSSAKARLDNASKGPTVTRF” stands “failed”.
Regarding “MSRVPGWLGRLGAGLTRASERLEQRREEARRDDADDGPGPVSDHERRPLDDTAEDSAVEHLAAHRPVALAHRPDPAQAVPWGVRVAAEAGWRLLVLAGTVWVLMRVISAVQLVVLAFVAALLITALLQPAVAWLRRHGVPRGPATALTAILGFVVMGLIGWFVTWQVMENIDNLSDQVQDGIDELRNWLLNSPFHVTDKQINEIAKNLRDAVGANTDQITSAGLEGVTVVVEALTGILLAAFSTLFLLYDGKRIWQWSLKLVPAAARPGVAGAGPRAWRTLTAYVRGTVIVALIDAIFIGLGIYFLDVPMAVPLAVFIFLFAFIPLVGAVVSGALAVVVALVTQGVFAAVMTLVVVLAVQQIEGHILQPFILGRAVRVHPLAVVLSVAAGGMVAGIGGAVVAVPLVAVTNTVVGYLRAYSREAALRRTPRPHGATSTDAAPAVDRVPGPPKPPAPPADGPPSDAP”, the protein production result is recorded as “failed”.
Under “MSRYDITGSEGEYEPGSDNKVLRNLPGITDPEEMNIVETDLLEDLYLQVFDNFPEELTFETLCQWHRAWLGNVYSWAGQSRTVDMSKPNIRFASPVQIPKLAEKFEARYLPRFAELPEMTDEELVAFLAEVHVEFILIHPFREGNGRISRLLLDVMAAKAGAEPLDYSLWDEHKDFYFKAIQAGRDGDYQHVERLIRDVLEAQQ” stands “failed”.
The entry for “MSSAIERKSLDPSEEPVDEVLQIPPSLLTCGGCQQNIGDRYFLKAIDQYWHEDCLSCDLCGCRLGEVGRRLYYKLGRKLCRRDYLRLFGQDGLCASCDKRIRAYEMTMRVKDKVYHLECFKCAACQKHFCVGDRYLLINSDIVCEQDIYEWTKINGMI” is “failed”.
As for “MSSALLRVAYAYDRLRAHPPEVAGQIATAMASAVHPKGEEPVFLELGVGTGRIALPLIARGYRYIALDADAAMLEVFRQKIAGVDRKVQVVQADARAIPLPDESVHGVIVVHLWHLVPDWPKVLAEAIRVLKPGGALLEGWDQAEESPEWTLQERWRAFAAEEGFPVERGLHAKRLKEVEEALRCLGLKPRTREVARWREERTPREALEALSERLYSFTQGLPEPVHARVMERLWAWAEAELGDLDRPFPVEKRFLLRVSRLG”, the protein production result is “failed”.
Under “MSSASSEAQRLARLALLQVVDTAAEPFFDALAAAAQAIAGTPIALVSLVDERRQWWKANIGLPGVSETPRELAFCTYTIQGDAVMEVRDAPADPRFHDNALVTDAPGIRYYAGAPIVLPDGLRMGTVCVIDQRPRALEPAQLQALQQLAKVAAEGLEQRRVMLEREAANAQLQQRLRESEAFLERTGRVAGVGGWEVDVASGTLIWSDQTCRLHDVPPGYRPSLTEAIGFYPLEARAVITEAVDACVRDGTSWDLELPLTSATGRRLWVHSTGSVEHVDGRKRLIGAVQDVTDRHRAVDALAASERKFRKMFQYSLGLICTHDMHGRLVSINPAAARSLGRSVEQMEGRSLVEFVRPERHAALRGYLSRMVLDGQDSGVIELVAGDGSLRHWQYHNVLDVESDATVVLAHAQDITNQYRQEKQLLEWSFTDPLTNCYNRRFLDELDKRDPAVRWGCIVVDLDKFKLVNDTHGHQRGDEVLVQMAWFLNQPLRTQDRLVRLGGDEFLVLLHQASQTQLDALKRDYMGASEDAPIRFTLGTALRQDGEALAAVVDRADHSLYSLRRARRGTGTSDQR” stands “failed”.
The entry for “MSSATGRWRESPPTAVKNEEDNGRCPRELRVQSEAVLAGRYRLEERLGRGGMGEVWRAFDPHLEREVAVKLILSGDNDGVLIRRFQREARISANIQHPNITAVHDFGHHEGQLFLVMELLRGRDLGAVLADHPQGMPLDLVVSVAVQAADALRAAHTHRVVHRDLKPGNLFLLDTGHVKVCDFGIAHIADATSQLTAVGTALGTPAFMPPEQWKGEEVDSRSDVYALGGVMHTMLTGRIPFTGPLPALLAQHLTQDPPPIREFRPDVPLELADLVARMMAKDPAARPDSHELGELIYRAAAPEASGSPAFFSPQIAPQALPTAPPTAAPVPPQPSHATGYAAPSQWMPAAPQPHPTAHPPAEGDPQTMFTLGLRHREQGDIAGAESWYRKAAEAGHLDSMFNLALLSRERGNLVEAESWYRRAAEVGDVDAMVNLGDLLKERGESAEAELWHRRAAEAGHIASMHTLGNLLYSKGDTAEAETWWRRAAEAGNIRAMGVLGNLLEQRGDTFGAEQWYRRAAEAGNLDAMVNLGVLLENRHDTFGAEQWYRRAADAGDIDAMVNLGNLLHGRGDMGSAQYWWQRAAQTGNTRALNHLNQMG” is “failed”; for “MSSATGSKIVVTGATGNVGTSVVRLLSEDPEVGTVLGLARRIPDWSPAKTEWAAVDLASEQSDLTSHFADADAVVHLAWAFQPTHDPATTWRTNVLGSIRVFEAVAAAGVPALVHASSVGAYSPGPKNHAVDESWPTHGWPDAAYCREKAYLERALDTFERDHPGIRVVRMRPAFLFKRESASEQRRIFGGRFLPGPAARPELLPFLPDVPGLRVQALHTDDAARAYRLAVRSADARGAFNLAAEPPVDAELLGELLGVRPVRLPRAAARSAIAAAWGMRLLPASPHLFDAVLRLPVMDCTRARVELGWGATRTATEVLEEFLRGLRQGAGADTEPMRGRKVG” it is “failed”; for “MSSDAISLRAAGPGDLPGLLELYQVLNPSDPELTTQEAGAVFAAMLAQPGLTIFVATENGKPVATATLLIVPNLTRAARPYAFIENVVTLEARRGRGYGRTVVRHAIETAFGANCYKVMLLTGRHDPAVHAFYESCGFVQNKTGFQIRQD” it is “not failed”.
Under “MSSDCLNVSYPATGCQKLFEVVDEHKLRVFYEKRMGQVVEADILGDEWKGYQLRIAGGNDKQGFPMKQGVLTHGRVRLLLKKGHSCYRPRRTGERKRKSVRGCIVDANMSVLALVVLKKGEKDIPGLTDTTIPRRLGPKRASKIRKLYNLSKEDDVRRFVVRRPLPAKDNKKATSKAPKIQRLITPVVLQRKHRRIALKKKRQIASKEASADYAKLLVQRKKESKAKREEAKRRRSASIRESKSSVSSDKK” stands “failed”.
On to “MSSDKTLNVKATGIIALAVMCSRVLGLIREVLFNALFGSASMGIFLIAFRAPNLLRDLFAEGALSVSFITVFSKKIETEGEKSAWQLASKMLTLTSVFMSILCLFGIIFAKYLIFILAPGFSVKDAETTIFLTQLMFPFILLVSLAAIVMGMLNSKNVFGMPALASSFFNIGSILGGALCGWFIDPSFGERALIGLAIGTVIGGLLQLGVQFPSLRKVGFYFKPNFHWYDSGVRNTLILTIPAVIAASAVQINVLINSGFASYLGKEAVTWLNSAFRLMQFPLGVLGVAIATITLPVVSRLAATNNHSQFGSTLARAIRLAVFLTMPAAVGLWFFATPIISLIYEHGKFHASDSLQTAYALQFYALGLVAYSCIKVLSPAFYAIDKKWTPMIVSFATIILNIILNYFLIFKLSMGHRGLALSTTVSATVNFLVLYVLMTRLHNLQNRYLFNTILRCVLASAILGFMCQSIFAYGADFLYHPSFWIRAVSLAISISFAVLVYLSMCVILRVDEAKSIFMIIRHRLGFPIKFKSKQV”, for which the protein production entry is “failed”.
Under “MSSDVQKGDNLETPGARDLLLQTASNIMREGDVVDISLSELSLRSGLNSALVKYYFGNKAGLLKALLDRDMENIVKSVDALLAKDDMSPEAKLRRHISKCIDTYYDYPYLNRLLMRLVRDSDEAEAKRIADQYLLPLHRAYNRFIGEGVKAGVFRPINPQLFYFTVTGAADRFFSARLVLKHCFDQDTLTEQLRDSYREHTVDFIMAGILAH” stands “not failed”; under “MSSEKVMSESSNASTKEGQLPRSSGVSWSLIMGAAFLMATSAVGPGFLTQTTVFTQTLGASFAFVILVSIILDIGAQLNIWRVIVVSKKRAQDIANDLLPGLGYAIAGTVALGGLAFNIGNIGGAGMGMNVLFPSISPVAGASISAVIAVAIFMLKDAAKVMDRFTILMGAALIVMTLYVLFSTSPPIGEALYRSVWPEKLNVLAIITLVGGTVGGYITFAGAHRLIDAGVTGKEALPQVNRGSVSAISVASIVRVILFLAALGVISTGVTLDPSNPPASMFQHAAGNIGYKIFGLVLWAAAITSVIGAAYTSVSFLKTLHPMIDLHSRKFIIGFIVISTFIFCFIGKPVVLLIVAGALNGFILPVTLGIMLIAAKKAQIVGDYKHPVWMSVFGWLITAMMAAMSVYTLYMLLI”, “failed”; under “MSSERIVELIKEIYLDFRKGNFKEALVKSEEAHSLDFDNIEILTALKSSVYWNGQVESLDRIGQDYEKAEFLIREWNNFAGRYLKKMGCNFLQGRNSIKYFVFQTCLYIYKNIYKMHPENLDLLIKIAKSYKGMGNYERAINVFLQILGDFKDNSDVVAELADSYALVDEIKEAKVLFREAFFINPQKIDIYSLESDMILRLIDLIKSDRNISDDLIKEWIPVYGSLNGVFNIKRELRPIELGQLKQSVYSLRNELKEKSYRSINESILLPRLINKYFWLIDHYVRIKEDRARIDEILLYIKEIDLGIYQQYVN”, “failed”.
Under “MSSERQLAGRIVVPGEPLPEEVEASPPYVIDYKGVKRATVVGLLREKGDGGGRAFVKLKEIYVPQAGDVVIGLIQSVGIMNWFVDINSPYVAVLSVQDFLGRPFNPAVDDMQSLLKVGDYIKAKVVAFDKTRSPLLTVQGEGLGRIVRGKIVEISPAKVPRVIGRKMSMLKTLEEKTECKIFVARNGRIHLECPNEDLEAIAVMAIKIIDEEAYTSGLTKRIIKFIEEERRIREV” stands “not failed”.

The values are drawn from a protein production outcome set (Wang et al. 2014).
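Further: failed if final PepcDB status was selected cloned or expressed and not failed if soluble or beyond.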
